Laboratory results taken from the DeepSol protein solubility set.

Assay: soluble on expression in E. coli; label from the status in PepcDB or PDB records

Sequence | soluble on expression in E. coli
MGSDKIHHHHHHMENFVFHNPTKIVFGRGTIPKIGEEIKNAGIRKVLFLYGGGSIKKNGVYDQVVDSLKKHGIEWVEVSGVKPNPVLSKVHEAVEVAKKEKVEAVLGVGGGSVVDSAKAVAAGALYEGDIWDAFIGKYQIEKALPIFDVLTISATGTEMNGNAVITNEKTKEKYGVSSKALYPKVSIIDPSVQFTLPKEQTVYGAVDAISHILEYYFDGSSPEISNEIAEGTIRTIMKMTERLIEKPDDYEARANLAWSATIALNGTMAVGRRGGEWACHRIEHSLSALYDIAHGAGLAIVFPAWMKYVYRKNPAQFERFAKKIFGFEGEGEELILKGIEAFKNWLKKVGAPVSLKDAGIPEEDIDKIVDNVMLLVEKNLKPKGASLGRIMVLEREDVREILKLAAK | soluble
MEQEFFFPPPKKSDGPVVACVVEKKGDGTRTSMRQNEIYAYSAQIRTGDGCMVMPKIHWNSFEPSDWVSCTLEYVNKANQIKEKEMLEISKVPAENFDRFGMPPTRFENGIVQIKTLFVACPEFIKNRETRNAYGSYKKLFILNIGLGFVSTRRTADGNLAEKVKNGDVYTGIFEFRAKDNGAINFNHRGRVRDETNHVIERDAMWELTKTSSVAATDVQKKQMKEAIEQLRKDAEQFEREFKDSQSRPVAPMLPPNEISENRKEINLGLALPSRHSQPSIRTVDVVTTTPAQMMPTASSFRIPFAQVSKAPVVAPSSQLQQQQQQPCSSNQTARIGNFLERDQVRGNLLGVPLSSSTPRGSPELLRRREVTADDGNITSNTAVMLRDNNANPMNRRRPS | not soluble
MAHHHHHHMLLLLEREHPAVHAAVERILRGDSKIPVSVVRDFDGCEYHIRVEWDKEEKEMSQTSGVDSKDTGSGEVGTVNVGGTASVTVSLRSFTPFAELNTHGNFYEVLTTLFPSELQKFVVCDTHKGDGEDFTVAVHIPSNVPAKMLKEAMHSTAQLRAWSFVPAFARQFELFLTNPEVVQPLQLHYHDGEEMVVYNNRGSFIVAIALRVPSKDDAVLTRHFLQAMVEVRKHERSFCGSSAFIFEQGGPPDSVVAVTGPRGRVRDPNTFWCSFQLYKQQMEPPPRLVETVMHLVNFRTTLAYHIRAGRTYMHGIMRKRVESSLQWLNKAKARVAEETKITIT | not soluble
MGSDKIHHHHHHMAHYEVKPSFYNYVFSPYLEPAIKVNPGDTVSLYTDDAFESRITSEDVSPKAAVRNAKFLNPQSGPVYINGAEPGDTLAVHFESIEFTRDWAVSCVMEYFGGLQSNSITKMLQKPLVEEVYIWKSKDKGQTWTNDKIGVTIPANPFCGTLATAPDTEAIQALTPGQFGGNMDCPDICPGHTIYLPVHNPGALFYIGDCHAAQGQGELCGVALEISAKATLKFDVIKNKVTNWPRIESPEKIMSVGSAKPMEDAARIAYADLIDWMVSDYGFKVLDAYELLTMVGGLYVANMVDTTYSLCASIEKKYLKRNS | not soluble
MGHHHHHHSHPSSPDSLHYLSPTGVNEYLMALWSVGSVVQDYDSDKLFPAFGFGAQVPPDWQVSHEFALNFNPSNPYCAGIQGIVDAYRQALPQVRLYGPTNFAPIINHVARFAAQAAHQGTASQYFMLLLLTDGAVTDVEATREAVVRASNLPMSVIIVGVGGADFEAMEQLDADGGPLHTRSGQAAARDIVQFVPYRRFQNAPREALAQTVLAEVPTQLVSYFRAQGWAPLKPLPP | not soluble
MNYQVLLYYKYTTIDDPEQFAQDHLAFCKAHHLKGRILVSTEGINGTLSGTKEETEQYMAHMHADERFKDMVFKIDEAEGHAFKKMHVRPRKEIVALDLEDDVDPRHTTGQYLSPVEFRKALEDDDTVIIDARNDYEFDLGHFRGAIRPDITRFRDLPDWIKENKALFTDKKVVTYCTGGIRCEKFSGWLLKEGFEDVAQLHGGIATYGKDPETKGQYWDGKMYVFDDRISVDINQVEKTIIGKDWFDGKPCERYINCANPECNKQILVSEENETKYLGACSYECAKHERNRYVQANNISDNEWQQRLTNFDDLHQHALEHHHHHH | soluble
MGSDKIHHHHHHMENIPFLRASTVPVIEYLDELKEIDASHIYTNYGPINQRFEQTIMSGFFQNRGAVTTVANATLGLMAAIQLKKRKKGKYALMPSFTFPATPLAAIWCGLEPYFIDISIDDWYMDKTVLWDKIEELKEEVAIVVPYATFGSWMNLEEYEELEKKGVPVVVDAAPGFGLMNGGMHYGQDFSGMIIYSFHATKPFGIGEGGLIYSKNEEDIQRIKRMGNFGFDTNRECTMMGFNCKMSEYAAAIGIATMKKWDDKLKERTRISEWYKQLLQSNGLMKKGWQLQKTEAVIQQFMPILCPEEVRNKQVIEDLKKQKIEARLYFSPSCHQQVLFRNYKSTDLTRTNKIAKRIVSLPLWEGMTKEIVEQIVICLGQKVVSADE | not soluble
MACFSSLSTGVLDMYDLIIVGGGPSGASAGRVAGKAGISTLLIEKENFPRYKPCGGALSPYALSCLDFKLPEYLIEKDISRIRVHFRELCTEMQKDYSIALLVSRKAFDNFLLDKARETGIDIHSGEKVLDCEEGEECVEVRTSQNTYLAKFVLIAEGSEGVLKYSVRKRKDRRTEYDLALVSEIPERDKVIRKRFPNAIDMHFGIASGGYGWIFPHSEHYSVGIVGTAEHLKHPKAVMQDFLQANGFSGDFQVHSHIIPVGGIKRKTISSRILLSGDAAGFVDAFIGEGISYAIRSGQLAAENVAEIVLYNRKLSDLKEYETSCRKEFGNFLSSSLKLEKAMHRFPETSFRLALSRKEIIDKYLEEVVINRSHKDYVRWLLLNFSLSEPASKIKSIKDKNQLEHHHHHH | not soluble
QALQTLVEKISIVFFQKPFLHQATFNRRLKTTGGRYHLASHHLDFNPTVFLKYGQEELEKVIKHELCHYHLHLAGKGYQHKDKDFKELLAKTGGARYAPPLVERKKAVFHQYQCQSCGEVILRKRRIDTTRYVCGKCHGRLSWQ | not soluble
MGSDKIHHHHHHMLESTEKGEVRKTVGNYRLILMNDPNLQGAFRLNMFTDKIDITRDLGWYRESDSLTDVDLKFLVVYLEKHYGLSNEKRIEDVIKVVANENRYHPVLDRINSITWDGRERIRYALHHFLGAEVSEYTYEVMKLFMIGTIARISCPGIKFEVMLCLVGGQGAGKSTFLRFLAMEDDWFTDDLKKMDDDNVYRKIQGHLIIEFPEMVAILNAKNVEDTKSFMSRQKDTYKTPYDRHPKDHKRQCVFAGSSNSLDFLPMDRSGNRRFLPILCNMEEAETHILDDEKTSREYIDQMWAEAMEIYRSGKCQLRLPKEMEKELCEYQKQFMQEDTKKELILDYLEHYEGSMVCSRQLYSEALGNDGNPAQWEIREINDIMNNCSDWIAFSNPRHFPEPYRRQKGWEKPDNRGQDFQPITKEQMEQLSLPPEWMER | not soluble
GSPALDTGTTEEDRLKIDVIDWLVFDPAQRAEALKQGNAIMRKFLASKKHEAAKEVFVKIPQDSIAEIYNQCEEQGMESPLPAEDDNAIREHLCIRAYLEAHETFNEWFKHMNSVPQKPALIPQPTFTEKVAHEHKEKKYEMDFGIWKGHLDALTADVKEKMYNVLLFVDGGWMVDVREDAKEDHERTHQMVLLRKLCLPMLCFLLHTILHSTGQYQECLQLADMVSSERHKLYLVFSKEELRKLLQKLRESSLMLLDQGLDPLGYEIQLSGRIVTD | soluble
MGSDKIHHHHHHMANLYDLKKFDLNLLVIFECIYQHLSISKAAESLYITPSAVSQSLQRLRAQFNDPLFIRSGKGIAPTTTGLNLHHHLEKNLRGLEQTINIVNKSELKKNFIIYGPQLISCSNNSMLIRCLRQDSSVEIECHDILMSAENAEELLVHRKADLVITQMPVISRSVICMPLHTIRNTLICSNRHPRITDNSTYEQIMAEEFTQLISKSAGVDDIQMEIDERFMNRKISFRGSSLLTIINSIAVTDLLGIVPYELYNSYRDFLNLKEIKLEHPLPSIKLYISYNKSSLNNLVFSRFIDRLNESF | not soluble
MAHHHHHHMPSVATASTRAVLAYPTDDAKLLVELTPTDRVAGGGSCGGFSGGGPMTQSDLGVGGSRMLQSLLVTRNVRDHLLDLRFSEAALSAQVTLQGDTVRDLIADITAAQSTEVSIRIDPKVGVILRGEGGPYGEVEAHVHATSEALLSLSREQSASTRVYTHHLALACGARGGTGGGGSSGSSAGAGGTGGGRLRGTGASVRDGRLSNADYILMGLAASAAGAGSSGGGGGAAVGTLFGGFERLTLQINAQRQLSVLHTQRDHELKVFVTVVVMPLSSVCDML | not soluble
SEAMFCDFPKINHGILYDEEKYKPFSQVPTGEVFYYSCEYNFVSPSKSFWTRITCAEEGWSPTPKCLRLCFFPFVENGHSESSGQTHLEGDTVQIICNTGYRLQNNENNISCVERGWSTPPKCRSTISAEKCGPPPPIDNGDITSFLLSVYAPGSSVEYQCQNLYQLEGNNQITCRNGQWSEPPKCLDPCVISQEIMEKYNIKLKWTNQQKLYSRTGDIVEFVCKSGYHPTKSHSFRAMCQNGKLVYPSCEEK | soluble
MNNVLLEVKDLETSLKINNEWLATVENISFELSKGEVLGIVGESGCGKSILSKSIIKLLPEKISKLSNGEVIFDGKRIDTLNEKQLLDIRGNDIAMIFQEPMTALNPVFTIKNQLVESIKSHKKISKKEANKLAKDLLKKVGIARQDEILNSYPHQLSGGMRQRVMIAMAISCSPKLLIADEPTTALDVTIQAQILDLLKELQKETQMAIMMITHDLSVVAEFCDKVLVMYAGQIVEFGGIKEILHNPKHPYTQKLLSTIPKLKEEQKRLETIEGIVPSIQAFHVNKCRFANRCNKKLDICNNQSPKMHVCEDVIVRCHLYKNEYKEI | not soluble
MGSDKIHHHHHHMARLAKIKVKTLEQRLWDTADALRGNQEPSEYKHVVLGLVFLKYISDRFEERRRAIETSLSDPNSEEYIPNEARRSEFLEDRDEYASHNVFWVPELARWGYLQDNAKLPKIGQQLDQAMDLIEKENPIIRGVLPRNYGREGLDKSRLGQLVDLIGSIGFTESDDHGSDDVLGRVYEYFLGQFAGKETGKDAGAFYTPRSVVKTLVEMLEPFHGRVYDPACGSGGMFVQSAEFVTAHGGERTDISVYGQEFTDTTWKLAKMNLALRGIEADLGDRSADSFTQDLHRDLRADFIIANPPFNVSNWWNAKLADDPRWKYGTPPEGNANFAWVQHFLHHLSPKGTAGFVLSNGSLSSKSSGEGEIRRKLVEADLVDCIVAMPDKLFFNTGIPVSLWFISKERHGNGHRARQGEVLFIDASKLGRMENRRLRVLDDDRDIAKIAGAYHAWRNHDGGYEDVPGFVVAATLEEIRQHDFVLTPGRYVGTKEAEADWEPVEDKIARLTGELYAEFERGRKLEEVVRERLGGLNAD | not soluble
GAMGSDFLLGNPFSSPVGQRIEKATDGSLQSEDWALNMEICDIINETEEGPKDALRAVKKRIVGNKNFHEVMLALTVLETCVKNCGHRFHVLVASQDFVESVLVRTILPKNNPPTIVHDKVLNLIQSWADAFRSSPDLTGVVTIYEDLRRKGLEFPM | soluble
MKKTIYKCVLPLLICILLTGCWDRTEINDIAFVVSSAIDKKKDQYRVAMQIPLVGQLGGQTGGGGGTAGSKTWYVDSASGTTIREANNKLQTSLSRTINTSHRRTVIIGEDMARDGVAPVFDILTRNPQNRLTALILVSRGEARDILNTDVQLEQFPAEMIRELAIIATSRPVFLSRFMSDLVEIGSDPYAPVISASKTKPGGKGKSNLKIDGLAIFKKDRLMDIFKDEHMTAALMLLNQARQPEFIVDLPNQMGQASIQLQKSNASFHAAEKNGKLSMTIEIRAKGIIMENQSTYETRENDQYYIIQKALNRTIKKDVISTVHRLQKLKADPAGFQDRTIRSTATTKNLLKKEWEEVYKDMEVHVVPIVTIEQGGVLYKTISH | not soluble
MSLEVKVGLAPMAGYTDSAFRTLAFEWGADFAFSEMVSAKGFLMNSQKTEELLPQPHERNVAVQIFGSEPNELSEAARILSEKYKWIDLNAGCPVRKVVKEGAGGALLKDLRHFRYIVRELRKSVSGKFSVKTRLGWEKNEVEEIYRILVEEGVDEVFIHTRTVVQSFTGRAEWKALSVLEKRIPTFVSGDIFTPEDAKRALEESGCDGLLVARGAIGRPWIFKQIKDFLRSGKYSEPSREEILRTFERHLELLIKTKGERKAVVEMRKFLAGYTKDLKGARRFREKVMKIEEVQILKEMFYNFIKEVEGGSHHHHHH | soluble
